Biological target: bovine brain tubulin (alpha-beta heterodimer), polymerized into taxol-stabilized microtubules (bovine) (UniProt Q6B856)
Assay: negative stain electron microscopy

Substance | percent of microtubules with rings
KLP10A MD K350A (from UniProt Q960Z0 279-615) (domain or fragment) | < 10%
KLP10A MD K399A (from UniProt Q960Z0 279-615) (domain or fragment) | < 10%
